The values below come from patent publication US20200407436A1 (published 2020).

Several values for one entry are separate records, joined by “and”; a condition that tells them apart may be missing. Identical values can stand only once.

The target in experiment [1] is T1, mature human TGF-beta 1 (human, UniProt P01137 279-390). Put plainly: cell-based or functional assay.
The target of experiment [2] is T2, mature human TGF-beta 2 (human, UniProt P61812 303-414).
T2 sequence: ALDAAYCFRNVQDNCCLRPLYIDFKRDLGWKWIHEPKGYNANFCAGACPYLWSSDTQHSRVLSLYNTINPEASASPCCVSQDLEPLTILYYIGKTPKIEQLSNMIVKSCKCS
Put plainly: cell-based or functional assay.

Experiment [3] concerns the target T3, mature human TGF-beta 3 (human, UniProt P10600 301-412).
T3 sequence: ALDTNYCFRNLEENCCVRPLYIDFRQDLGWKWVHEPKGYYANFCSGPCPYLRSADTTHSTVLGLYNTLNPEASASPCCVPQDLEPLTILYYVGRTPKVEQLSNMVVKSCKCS
The experiment can be described thus: cell-based or functional assay.

Experiment [4] concerns the target TGF-beta produced and activated by BxPC3 cells. Put plainly: cell-based or functional assay.
The target of experiment [5] is T1, mature human TGF-beta 1. Put plainly: SPR Biacore T200, TGF-beta amine-coupled (~150 RU), Fab as analyte; heterogeneous ligand fit, component 1 (KD1; believed occluded, weak interaction). The protocol: (§1) Background subtraction binding curves were analysed using the Biacore™ T200 evaluation software (version 1.0) following standard procedures.
(In general: Surface plasmon resonance follows binding to a sensor surface in real time, without labels.)

For experiment [6], the target named is T2, mature human TGF-beta 2. Described as above. The protocol: as §1
Experiment [7] deals with T3, mature human TGF-beta 3. Described as above. As to the method: as §1
Experiment [8] has as its target T1, mature human TGF-beta 1. Put plainly: SPR Biacore T200, TGF-beta amine-coupled (~150 RU), Fab as analyte; heterogeneous ligand fit, component 1 (Ka1; believed occluded, weak interaction). The protocol: as §1
For experiment [9], the target named is T2, mature human TGF-beta 2. Described as above. The protocol:
as §1

The target in experiment [10] is T3, mature human TGF-beta 3. The experiment is described as above. The protocol: as §1
The target of experiment [11] is T1, mature human TGF-beta 1. The experiment can be described thus: SPR Biacore T200, TGF-beta amine-coupled (~150 RU), Fab as analyte; heterogeneous ligand fit, component 1 (Kd1; believed occluded, weak interaction). As to the method:
as §1

Experiment [12] deals with T2, mature human TGF-beta 2. The experiment is described as above. The protocol:
as §1

Experiment [13] addresses T3, mature human TGF-beta 3. The description is as above. The protocol: as §1
Experiment [14] concerns the target T1, mature human TGF-beta 1. Put plainly: SPR Biacore T200, TGF-beta amine-coupled (~150 RU), Fab as analyte; heterogeneous ligand fit, component 2 (KD2; believed non-occluded, representative). As to the method: as §1
The target in experiment [15] is T2, mature human TGF-beta 2. Described as above. The protocol: as §1
Experiment [16] concerns the target T3, mature human TGF-beta 3. The description is as above. As to the method: as §1
The target in experiment [17] is T1, mature human TGF-beta 1. Put plainly: SPR Biacore T200, TGF-beta amine-coupled (~150 RU), Fab as analyte; heterogeneous ligand fit, component 2 (ka2; believed non-occluded, representative). The protocol: as §1
For experiment [18], the target named is T2, mature human TGF-beta 2. The description is as above. As to the method:
as §1

The target of experiment [19] is T3, mature human TGF-beta 3. The experiment is described as above. The protocol: as §1
Experiment [20] concerns the target T1, mature human TGF-beta 1. Put plainly: SPR Biacore T200, TGF-beta amine-coupled (~150 RU), Fab as analyte; heterogeneous ligand fit, component 2 (kd2; believed non-occluded, representative). The protocol:
as §1

Experiment [21] deals with T2, mature human TGF-beta 2. The description is as above. The protocol: as §1
The target in experiment [22] is T3, mature human TGF-beta 3. The description is as above. The protocol:
as §1

For experiment [23], the target named is T2, mature human TGF-beta 2. The experiment can be described thus: X-ray crystal structure of the complex.
Experiment [24] has as its target T1, mature human TGF-beta 1. The experiment can be described thus: cell-based or functional assay. This is another data set of the same source.
The target of experiment [25] is T2, mature human TGF-beta 2. The experiment can be described thus: cell-based or functional assay. This is another data set of the same source.
In experiment [26] the target is T3, mature human TGF-beta 3. The experiment can be described thus: cell-based or functional assay. This is another data set of the same source.
Experiment [27] deals with TGF-beta produced and activated by BxPC3 cells. The experiment can be described thus: cell-based or functional assay. This is another data set of the same source.

T1 sequence (P01137 279-390 limits assumed): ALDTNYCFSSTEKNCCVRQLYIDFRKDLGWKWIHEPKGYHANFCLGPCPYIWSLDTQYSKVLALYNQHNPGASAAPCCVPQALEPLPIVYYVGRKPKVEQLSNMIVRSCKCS

B1: 4856 rabbit Fab (Fab, V domains shown)
VH: QSLEESGGRLVTPGTPLTLTCTASGFSLSSYDMSWVRQAPGKGLEWIGIIYGGSGSTWYASWAKGRFTMSKTSTTVDLKITSPTTEDMATYFCARGRDGGAGGSRNGYSLWGQGTLVTVSS
VL: AYDMTQTPASVEVAVGGTVTIKCQASESIYSGLAWYQQTPGQRPKLLIYAASDLASGVPSRFKGSGSGTEYTLTISGVECADAATYYCQQTWTDGGIDNPFGGGTEVVVKR
notes: Rabbit variable regions cloned into rabbit Fab no hinge (VH) and rabbit kappa (VL) vectors, expressed in Expi-293 cells; also called BSN.4856.rbFab
Turning to B1, the “Geomean IC50, HEK-Blue TGF-beta reporter gene assay” value is 1.77 unit unclear (column head says nM, but r10 gives the nM value in brackets) and 0.04 nM with mature human TGF-beta 1 [1]; 0.3 unit unclear (column head says nM, but r10 gives the nM value in brackets) and 0.01 nM with mature human TGF-beta 2 [2]; 24.5 unit unclear (column head says nM, but r10 gives the nM value in brackets) and 0.54 nM with mature human TGF-beta 3 [3]. In [4], the “Geomean IC50, BxPC3-HEK-Blue TGF-beta reporter gene co-culture assay” value is 3.7 nM. Moreover, the Kd (commonly a measure of binding affinity in units of concentration) with mature human TGF-beta 1 [5] is 6.3 nM; with mature human TGF-beta 2 [6], 1.69 nM; in the experiment with mature human TGF-beta 3 [7], 12.4 nM; in the experiment with mature human TGF-beta 1 [14], 0.112 nM; in the experiment with mature human TGF-beta 2 [15], 0.606 nM; with mature human TGF-beta 3 [16], 1.65 nM. Besides, the kon (commonly the second-order rate constant of association) amounted to 50500 M⁻¹ s⁻¹ with mature human TGF-beta 1 [8]; 38700 M⁻¹ s⁻¹ in the experiment with mature human TGF-beta 2 [9]; 63300 M⁻¹ s⁻¹ with mature human TGF-beta 3 [10]; 455000 M⁻¹ s⁻¹ with mature human TGF-beta 1 [17]; 632000 M⁻¹ s⁻¹ in the experiment with mature human TGF-beta 2 [18]; 873000 M⁻¹ s⁻¹ with mature human TGF-beta 3 [19]. For the same molecule, the koff (in general, the rate constant with which the complex falls apart) with mature human TGF-beta 1 [11] stood at 0.000318 s⁻¹; with mature human TGF-beta 2 [12], 6.55e-05 s⁻¹; in the experiment with mature human TGF-beta 3 [13], 0.000782 s⁻¹; with mature human TGF-beta 1 [20], 5.08e-05 s⁻¹; in the experiment with mature human TGF-beta 2 [21] it was 0.000383 s⁻¹; in the experiment with mature human TGF-beta 3 [22], 0.00144 s⁻¹.

B2: scFv 4856 (scFv)
scFv: EVQLVESGGGLVKPGGSLRLSCAASGFSLSSYDMSWVRQAPGKCLEWIGIIYGGSGSTWYASWAKGRFTISRDSAKNSVYLQMNSLRAEDTAVYYCARGRDAGAGGSRNGYSLWGQGTLVTVSSGGGGSGGGGSGGGGSGGGGSAYDMTQSPSTLSASVGDRVTITCQASESIYSGLAWYQQKPGKAPKLLIYAASDLASGVPSRFSGSGSGTEYTLTISSLQPDDFATYYCQQTWTDGGIDNPFGCGTKVEIKRTENLYFQ
As to B2, the binding result with mature human TGF-beta 2 [23] was “binds”.

B3: humanised antibody 4856 Fab graft gL3gH23 (Fab, V domains shown)
VH: EVQLVESGGGLVKPGGSLRLSCAASGFSLSSYDMSWVRQAPGKGLEWIGIIYGGSGSTWYASWAKGRFTISRDSAKNSVYLQMNSLRAEDTAVYYCARGRDAGAGGSRNAYSLWGQGTLVTVSS
VL: AYDMTQSPSTLSASVGDRVTITCQASESIYSGLAWYQQKPGKAPKLLIYAASDLASGVPSRFSGSGSGTEYTLTISSLQPDDFATYYCQQTWTDGGIDNPFGGGTKVEIKR
Regarding B3, the “Geometric mean IC50, HEK-Blue TGF-beta reporter gene assay” value came out at 0.41 nM with mature human TGF-beta 1 [24], 0.017 nM with mature human TGF-beta 2 [25] and 1.99 nM in the experiment with mature human TGF-beta 3 [26]. In addition, the “Geometric mean IC50, BxPC3 and HEK-Blue TGF-beta reporter gene co-culture assay” value in experiment [27] is 9.1 nM.

B4: humanised antibody 4856 Fab graft gL3gH29 (Fab, V domains shown)
VH: EVQLVESGGGLVKPGGSLRLSCAASGFSLSSYDMSWVRQAPGKGLEWIGIIYGGSGSTWYASWAKGRFTISRDSAKNSVYLQMNSLRAEDTAVYYCARGRDAGAGGSRDGYSLWGQGTLVTVSS
VL: AYDMTQSPSTLSASVGDRVTITCQASESIYSGLAWYQQKPGKAPKLLIYAASDLASGVPSRFSGSGSGTEYTLTISSLQPDDFATYYCQQTWTDGGIDNPFGGGTKVEIKR
Consider B4, for which the figures for the “Geometric mean IC50, HEK-Blue TGF-beta reporter gene assay” value with mature human TGF-beta 1 [24], with mature human TGF-beta 2 [25] and with mature human TGF-beta 3 [26] were 0.255 nM, 0.016 nM and 1.95 nM, respectively. In addition, the “Geometric mean IC50, BxPC3 and HEK-Blue TGF-beta reporter gene co-culture assay” value in [27] turned out to be 3.77 nM.

B5: humanised antibody 4856 Fab graft gL3gH20 (Fab, V domains shown)
VH: EVQLVESGGGLVKPGGSLRLSCAASGFSLSSYDMSWVRQAPGKGLEWISIIYGGSGSTWYASWAKGRFTMSKDSAKNSVYLQMNSLRAEDTAVYYCARGRDAGAGGSRNGYSLWGQGTLVTVSS
VL: AYDMTQSPSTLSASVGDRVTITCQASESIYSGLAWYQQKPGKAPKLLIYAASDLASGVPSRFSGSGSGTEYTLTISSLQPDDFATYYCQQTWTDGGIDNPFGGGTKVEIKR
For the molecule B5, the “Geometric mean IC50, HEK-Blue TGF-beta reporter gene assay” value was 0.038 nM with mature human TGF-beta 1 [24], 0.011 nM in the experiment with mature human TGF-beta 2 [25] and 0.302 nM with mature human TGF-beta 3 [26]. In addition, the “Geometric mean IC50, BxPC3 and HEK-Blue TGF-beta reporter gene co-culture assay” value in experiment [27] was found to be 4.63 nM.
